Test results published in patent US7700101B2, “Reagents and method for modulating Dkk-mediated interactions” (Wyeth, priority 2001, dated 2010).

Columns and labels:
Wnt pathway = assay: Xenopus embryo screening for duplicated body axis; format: in vivo; conditions: RNA injected into ventral blastomere; LRP5 500 pg, Wnt5a 20 pg
From the text: Modification of the Wnt signaling pathway can be visualized by examining the embryos for a dorsalization phenotype (duplicated body axis) after RNA injection into the ventral blastomere at the 4- or 8-cell stage. On the molecular level, phenotypes can be analyzed by looking for expression of various marker genes in stage 10.5 embryos. Such markers would include general endoderm, mesoderm, and ectoderm markers as well as a variety of tissue-specific transcripts.
mRNA for microinjection into Xenopus embryos is generated by in vitro transcription using the CDNA constructs in the pCS2^+ vector described above as template. RNA is synthesized using the Ambion mMessage mMachine high yield capped RNA transcription kit (Cat. #1340) following the manufacturer's specifications for the Sp6 polymerase reactions. RNA products were brought up to a final volume of 50 μl in sterile, glass-distilled water and purified over Quick Spin-Columns for Radiolabelled RNA Purification G50-Sephadex (Roche, Cat. #1274015) following the manufacturer's specifications. The resulting eluate was finally extracted with phenol:chloroform:isoamyl alcohol and isopropanol precipitated using standard protocols (Sambrook et al., 1989). Final RNA volumes were approximately 50 μl. RNA concentration was determined by absorbance values at 260 nm and 280 nm. […]

[1] = test system: Zmax1/LRP5 ligand binding domain (LBD) baits LBD1 and LBD4; assay: Yeast two hybrid minimum interaction domain mapping of Dkk-1 with LRP5; conditions: FIG. 6
From the text: Further analysis of yeast two hybrid (Y2H) interacting proteins includes the dissection of protein motifs responsible for the interaction. Sequence alignment of multiple clones identified in the Y2H screens can help identify the smallest common region responsible for the interaction. In the absence of appropriate clones, deletion mapping of interacting domains is necessary.
PCR primers containing restriction sites suitable for cloning are designed to cover multiple sub-domains of the protein of interest (bait or prey). The methods involved in cloning, sequencing, yeast transformation, mating, and scoring of interactions are readily performed by one of ordinary skill in the art of molecular biology and genetic engineering.
The primers, which are presented in 5′ to 3′ orientation, were as follows: […]
PCR was performed using PfuTurbo® polymerase (Stratagene). The PCR products were gel purified, digested with SaflI/NotI and ligated to pPC86 (Gibco/BRL) which had been linearized with SalI/NotI.
These clones were transformed into yeast and mated with each of three yeast strains containing pDBleu (Gibco/BRL), pDBleuLBD1, and pDBleuLBD4. Positive interactions were detected by growth of the hybrids on appropriate selective media.

Sequence of Zmax1/LRP5 ligand binding domain (LBD) baits LBD1 and LBD4 (as listed by the source): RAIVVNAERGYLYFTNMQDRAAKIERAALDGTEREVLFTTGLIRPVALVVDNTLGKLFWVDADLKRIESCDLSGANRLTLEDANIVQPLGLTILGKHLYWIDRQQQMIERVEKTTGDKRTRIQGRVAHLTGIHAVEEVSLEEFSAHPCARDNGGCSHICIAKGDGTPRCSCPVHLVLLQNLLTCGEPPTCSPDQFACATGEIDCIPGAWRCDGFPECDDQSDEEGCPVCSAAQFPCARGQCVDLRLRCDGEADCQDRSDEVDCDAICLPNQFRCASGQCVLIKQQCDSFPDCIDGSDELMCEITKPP

B1: Wnt5a: murine Wnt5a cDNA clone, RNA injected (protein, UniProt P22725 62-380, looked up)
Protein Wnt-5a: IIGAQPLCSQLAGLSQGQKKLCHLYQDHMQYIGEGAKTGIKECQYQFRHRRWNCSTVDNTSVFGRVMQIGSRETAFTYAVSAAGVVNAMSRACREGELSTCGCSRAARPKDLPRDWLWGGCGDNIDYGYRFAKEFVDARERERIHAKGSYESARILMNLHNNEAGRRTVYNLADVACKCHGVSGSCSLKTCWLQLADFRKVGDALKEKYDSAAAMRLNSRGKLVQVNSRFNSPTTQDLVYIDPSPDYCVRNESTGSLGTQGRLCNKTSEGMDGCELMCCGRGYDQFKTVQTERCHCKFHWCCYVKCKKCTEIVDQFVCK
Wnt pathway
  induction of axis duplication: could not induce axis duplication

B2: D11: Dkk-1 fragment clone F3/R2: Val 139-Cys245 (protein)
chain: VSSDQNHFRGEIEETITESFGNDHSTLDGYSRRTTLSSKMYHTKGQEGSVCLRSSDCASGLCCARHFWSKICKPVLKEGQVCTKHRRKGSHGLEIFQRCYCGEGLSC
modifications: left off: large carriers
[1]
  growth of diploids on selective media (interaction with LRP5 LBD baits): no growth was observed
